# Source: patent publication WO2010106812A1 (dated 2010)
# Target: T1, soluble human FcRn (human, UniProt P55899 24-290; P61769 21-119)
# T1 construct: Complex of FcRn and beta 2-microglobulin; the secreted protein lacks them
# Test: Biacore, human FcRn
row,fold binding against TOCILIZUMAB-IgG1,Binder
1,~1.4 times,"TOCILIZUMAB-M58 (antibody, IgG2, IgG2-derived constant region (WT-SKSC with further changes, Gly446 and Lys447 deleted); also called WT-M58/WT-kappa) heavy: QVQLQESGPGLVRPSQTLSLTCTVSGYSITSDHAWSWVRQPPGRGLEWIGYISYSGITTYNPSLKSRVTMLRDTSKNQFSLRLSSVTAADTAVYYCARSLARTTAMDYWGQGSLVTVSSASTKGPSVFPLAPSSKSTSGGTAALGCLVKDYFPEPVTVSWNSGALTSGVHTFPAVLQSSGLYSLSSVVTVPSSNFGTQTYTCNVDHKPSNTKVDKTVERKSCVECPPCPAPPVAGPSVFLFPPKPKDTLMISRTPEVTCVVVDVSQEDPEVQFNWYVDGVEVHNAKTKPREEQFNSTFRVVSVLTVVHQDWLNGKEYKCKVSNKGLPAPIEKTISKTKGQPREPQVYTLPPSQEEMTKNQVSLTCLVKGFYPSDIAVEWESNGQPENNYKTTPPMLDSDGSFFLYSKLTVDKSRWQEGNVFSCSVMHEALHNHYTQKSLSLSP light: not shown"
2,~3.8 times,"TOCILIZUMAB-M73 (antibody, WT-M58 with asparagine 434 (EU) changed to alanine; also called WT-M73/WT-kappa) heavy: QVQLQESGPGLVRPSQTLSLTCTVSGYSITSDHAWSWVRQPPGRGLEWIGYISYSGITTYNPSLKSRVTMLRDTSKNQFSLRLSSVTAADTAVYYCARSLARTTAMDYWGQGSLVTVSSASTKGPSVFPLAPSSKSTSGGTAALGCLVKDYFPEPVTVSWNSGALTSGVHTFPAVLQSSGLYSLSSVVTVPSSNFGTQTYTCNVDHKPSNTKVDKTVERKSCVECPPCPAPPVAGPSVFLFPPKPKDTLMISRTPEVTCVVVDVSQEDPEVQFNWYVDGVEVHNAKTKPREEQFNSTFRVVSVLTVVHQDWLNGKEYKCKVSNKGLPAPIEKTISKTKGQPREPQVYTLPPSQEEMTKNQVSLTCLVKGFYPSDIAVEWESNGQPENNYKTTPPMLDSDGSFFLYSKLTVDKSRWQEGNVFSCSVMHEALHAHYTQKSLSLSP light: not shown"
